Measurements published in doi:10.1101/2023.11.17.567542 (bioRxiv, 2023).

Biological target: T1, HypD (Escherichia coli, UniProt P24192 1-373)
T1 sequence (looked up): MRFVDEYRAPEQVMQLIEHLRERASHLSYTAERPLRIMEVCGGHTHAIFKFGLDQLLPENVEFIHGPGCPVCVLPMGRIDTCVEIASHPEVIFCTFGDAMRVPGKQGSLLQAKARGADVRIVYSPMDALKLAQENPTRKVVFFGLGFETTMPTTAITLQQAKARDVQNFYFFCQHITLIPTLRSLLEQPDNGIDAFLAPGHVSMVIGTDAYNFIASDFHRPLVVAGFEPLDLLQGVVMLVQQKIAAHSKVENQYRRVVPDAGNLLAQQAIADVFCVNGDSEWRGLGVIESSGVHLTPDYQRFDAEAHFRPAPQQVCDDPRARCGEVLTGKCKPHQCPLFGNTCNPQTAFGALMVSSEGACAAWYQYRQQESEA
Assay: pull-down

binding result: binds
B1: StrepII-tagged HypC with amino acid exchange C2A (natural protein, Escherichia coli, UniProt P0AAM3 2-90, looked up)
chain: AIGVPGQIRTIDGNQAKVDVCGIQRDVDLTLVGSCDENGQPRVGQWVLVHVGFAMSVINEAEARDTLDALQNMFDVEPDVGALLYGEEK
